Source: the DeepSol protein solubility set

assay: soluble on expression in E. coli; label from the status in PepcDB or PDB records

Row | Sequence | soluble on expression in E. coli
1 | MKNYPVKKNDVIEVEIIDLTHEGLGVAKVDHYPLFIENALPGEKLEIKVLKTGKSFGYGKVLTVLKSSEQRVPVKDENFTKVGISPLQHLAYGAQLSFKTQQVENVMQRVAKLQEVPVLPTIGMNDPWHYRNKAQIPVRKIDNQLQTGFFRKNSHDLIPMEHFYIQDPEIDAAIVKIRDIMRKYSVKPYNESDNTGNLRHIVVRRGYHTGEMMVVLITRTPKLFPISKIVPDILEAIPEVVSIVQNVNPKRTNVIFGDETILLHGSEKITDTIFDLKFEISARSFYQVNPQQTEVMYQKVKEYAALTGNEIVVDAYCGIGTIGLTLAQDAKQVYGIEVIEEAVKDAENNAKLNNIENATFTAGLAEELLPKLVENGLQPDVVVVDPPRKGLDGQLVNTLIETQPERIVYVSCNPATLARDIALLTEGGYEAKEIQPVDNFPQTTHIESVTLLTKAVD | not soluble
2 | MTMIMRSIIDSLEALFSSFFSSIAPNLYEVLNFHCKKHTGMNFAEATLKNPKLTYEFLVKFFDSEMAVDVLDYLLSNFLKKYSIRAYGILKSFKSGDNKKLIEVAKLYSKVMQNGGGKDRD | not soluble
3 | MKKIILVAALLSAAVCLPAQNKGGNKSGGINLSLWKKACTQPLDSTQTTYVNLGLFSAMHKLHGVGFNAFGSMVQNNMNGVQISGLANLAGGSMHGVQIGGISNVNGNNLAGLSVSGLVNITGNKAKGVLITGLSNIAGDNMRGLMMSGIMNITGDKAAGVQLAGLANVTGEEYDGLMMSGLLNVVGEEMNGLQLSGLANVTGGQMNGVQLGLFNFASKAKGLQIGLFNYHKEDMKGLQLGLVNANPQTKVQLMVFGGNSTKINVGARFKNKLFYTILGGGTHYLDFDDKFSAALFYRAGLELPLYRNLFVSGDLGYQHIETFRNKKVEGIPARLYALQARLNLEYRFTDKFGLFVTGGYGGSRYYNKARTYDKGVIAEAGVVLFMAGDPLEHHHHHH | not soluble
4 | NLMKRCTRGFRKLGKCTTLEEEKCKTLYPRGQCTCSDSKMNTHSCDCKSC | soluble
5 | MSLRMQDIERKVIEWLDQHSAKAIRLLKRLIGEKSTLGSEFNAQAVVLEKLRQFHMDIDVWEPSIKQLKQHPYFKSNRSDFHESPNIVAKKTGAGGGRSLILNGHIDVVPEGSVKDWKYEPYQAVEENGKIYGRGSTDMKGGNTALLFALEALHACDVKLKGDVLFQSVVDEECGGAGTLSAIMRGYRADGALIPEPTNMKLFIKQQGSMWFRITVKGLSAHGGTRYEGVSAIEKSMHVITAIQELEKVRNARISDPLYDNIPIPVPVNIGTISGGAWPSSVADRVVIEGRCGIAPHEKPEAVKLELENWLKDLEYHDEWFKRHPVQVEWFGAQWLPNDLPDDHPLISVLQSAYQKMKQTEPIIEASPWGTDGGLLYHAGDTPVIVFGPGETKTAHQANEYIEVEAMIESAKIIALFVMDWCGLHTDGEGHHHHHH | soluble
6 | MERKALVTGGSRGIGRAIAEALVARGYRVAIASRNPEEAAQSLGAVPLPTDLEKDDPKGLVKRALEALGGLHVLVHAAAVNVRKPALELSYEEWRRVLYLHLDVAFLLAQAAAPHMAEAGWGRVLFIGSVTTFTAGGPVPIPAYTTAKTALLGLTRALAKEWARLGIRVNLLCPGYVETEFTLPLRQNPELYEPITARIPMGRWARPEEIARVAAVLCGDEAEYLTGQAVAVDGGFLAY | soluble
7 | MSLQCALYDAGRCRSCQWITQPIPEQLSAKTADLKNLLADFPVEEWCAPVSGPEQGFRNKAKMVVSGSVEKPLLGMLHRDGTPEDLCDCPLYPASFAPVFAALKPFIARAGLTPYNVARKRGELKYILLTESQSDGGMMLRFVLRSETKLAQLRKALPWLQAQLPQLKVITVNIQPVHMAIMEGETEIYLTEQQALVERFNDVPLWIRPQSFFQTNPAVASQLYATARDWVRQLPVKHMWDLFCGVGGFGLHCATPDMQLTGIEIALEAIACAKQSAAELGLTRLQFQALDSTQFATAQGEVPELVLVNPPRRGIGKPLCDYLSTMAPRFIIYSSCNAQTMAKDIRELPGYRIERVQLFDMFPHTAHYEVLTLLVKMEGHHHHHH | soluble
8 | MGSDKIHHHHHHMAFKTPLADRMRPQSLEQMVGQQDLLKAGQPLRQIIDQHVNIPLILWGPPGTGKTSLAQIIASQDDYPFVAFNASTENKAQLTKAIAQYPEQSFVLLIDEIHRMTKTLQDFLLPYLENGHVMLIGSTTENPIMSIVPAIRSRCQIFEFQPLSDTDIEIALRRAVTDIYNLTDDQVDAKALNLIAISAEGDLRIALNILETLHAIDQKQITVAAVQHFAQQQHFSYDRKATKHYDYLSAYSDSMAGSDTDAALYYLTILLKNDDLPSVVRRLREIPYTYIGLANPEQVTQIVVAANQAEKIGMPKAKYPLMFATMLMCISPKSGSFDQSWEKLDQDTQNPSQHPMPRGLRDMHYKHSEEITGGGLIDNPFQMPHQIAQQNYMPKGLAGRRYYYPKDNENERKLGAQYLKLHRFIYNEDYHE | not soluble
9 | MSLPPKFWIIIIVKKIDQQSLENAYRLFESGDIHQIEIGSTKGLQQIHHYLFNGLYEFAGKIREQNISKGHFRFANALYLKEALGKIEQMPEDTFENIINKYVEMNIAHPFLEGNGRSTRIWLDLVLKKHLGKVVNWQNVDKTQYLQAMERSPINDLEIRFLLQANLTDDVNNREIIFKGIEQSYYYEGYEKEEGGSHHHHHH | soluble
10 | MPLLDSFKVDHTKMNAPAVRIAKTMLTPKGDNITVFDLRFCIPNKEILSPKGIHTLEHLFAGFMRDHLNGDSIEIIDISPMGCRTGFYMSLIGTPNEQKVSEAWLASMQDVLGVQDQASIPELNIYQCGSYTEHSLEDAHEIAKNVIARGIGVNKNEDLSLDNSLLKGSHHHHHH | soluble
11 | MSALDCPAGTVLFRAGQDCPGFLRLDEGSIRVTLTAANGREVVLYRVRPGDVCLQTFACLTEGRSYSAEGVAETRVRGHLMSHADFRTALARDEAFRTEVMQAVARRFADFEHLVEDVALTGFDTRLARVLLRLAKGDTVAATHEALAAETASGRAFVSRRLAEFARQGLVELARGRVTLCDRSGLERIAAEER | not soluble
12 | MQKPDESNEKHDIPCTSASLLDHLIQKEASAAEDTDPLDHIGNIGEAIIGQFSSGADVGTEILQNALKMFDQAMAYTNPQAPPKRKYKRKEAPIEDAQPTTTSSATLASLLTLNPVPIESSAKRFHQNDLRAGFSPRTKFDVDCSDFFLLQGSDADTQFNNLHKKLEKERTQMFDDQVSKDVERLLNTANRVHGPREWTAEEKAEFTSYCRSWRSGALGADDKLNLQKFYSKAYGKVFQGLSENKASSEESAIDFSNFMGVGSEDPANQTEDVPGGSCKASPDNFSFSTLNPRMKYEKEKEFRSAINNIFTEVFKEFHSKKQFIPKPTRLDVPPCEIEREHLSMLMSKFSIAMDDPEKEWNVDELQELRRFYTLFREKNHLPFVQTKEFGKFLRKAFGRLEHYELQRENDTSLQEKRKFWQEYRKTHVPPKRERKACAARTTPVRPYIKSNIDTKGETEEERRLRRAAYLRKWRLAQKEKHSADVMSQFKHQEDVAL | not soluble
13 | ERSAVQLSLSSRLQLTLYQYKTCPFCSKVRAFLDFHALPYQVVEVNPVLRAEIKFSSYRKVPILVAQEGESSQQLNDSSVIISALKTYLVSGQPLEEIITYYPAMKAVNDQGKEVTEFGNKYWLMLNEKEAQQVYSGKEARTEEMKWRQWADDWLVHLISPNVYRTPTEALASFDYIVREGKFGAVEGAVAKYMGAAAMYLISKRLKSRHRLQDNVREDLYEAADKWVAAVGKDRPFMGGQKPNLADLAVYGVLRVMEGLDAFDDLMQHTHIQPWYLRVERAITEASPAH | soluble
14 | MTDVKNDVNVSSVVDADGLIEGNYDQVVESFDDMELKEELLRGIYGFGFEKPSAIQKRAIVPCTTGKDVIAQAQSGTGKTATFSVSILQRIDHEDPHVQALVMAPTRELAQQIQKVMSALGEYLNVNILPCIGGTSVRDDQRKLEAGIHVVVGTPGRVGDMINRNALDTSRIKMFVLDEADEMLSRGFKDQIYEVFRSMPQDVQVVLLSATMPSEVLDVTNRFMRNPIRILVKKDELTLEGIRQFYINVQKDEWKFDCLCDLYNVVNVTQAVIFCNTRRKVDTLTEKMTENQFTVSCLHGDMDQAERDTIMREFRSGSSRVLITTDILARGIDVQQVSLVINYDLPSNRENYIHRIGRSGRFGRKGVAINFVTENDARQLKEIESYYTTQIEEMPESIADLI | not soluble
15 | MGSDKIHHHHHHMETITIDEKTLYNLTQPSEVIEELTHLNGNLTLVPNILSEDALLNKSVKEIEKIALEEADKTSPKHVRGKKIRRKGYAKYRFLKGFKIMLKGREDIYKLERISVELPVLYSDKGRVKTQVEERLLREEKVFKALMTVYSVLGGKLNAKLWMLEIQASGDFKYVIVDGKYVKLKGGRGSFSAIGVTEEGKRAVLDITLSVEKDVMSYWRLLVEVWKKYSFVLVVVDGTKALDKISLAELQVRRQGCLVHLKRNATKEEREALNVIFSAESGEIKPETCPRLLSYLSTPKELWRWLKSNNLIESFNSLLERRRFGSFHSPWRILQIARTIANNYNLSVVFHQFY | not soluble
16 | MGSDKIHHHHHHMTRLEIVDSKLRQAKKTEEYFNAIRTNIQFSGKENKILAITSVREGEGKSTASTSLALSLAQAGFKTLLIDADTRNSVMSGTFKATGTIKGLTNYLSGNADLGDIICETNVPRLMVVPSGKVPPNPTALLQNAYFNKMIEAIKNIFDYIIIDTPPIGLVVDAAIIANACDGFILVTQAGRIKRNYVEKAKEQMEQSGSKFLGIILNKVNESVATYGDYGNYGKRDRKRK | not soluble
17 | MGSDKIHHHHHHMKGVTLRGLEVFEALSRTGSVAQASTLTGLSQPAVSQQLRNLEQALGTDLVDHGRRPMVLTPAGRAFLPRAETVLSQLRLAQSELTVMDLTHLSTLSMGLIDDFDNDLTPRLATLLADSLTKCRFKLITAPSHEISEAMKARRLHIAVAATSGEVHDGIIEYPLVRDPFILVAPRGVVSKGGDMLASLQGLPLLRYAREQLIGRQIEAHLARQKLDFEERFEIGSHLALMAMVARRLGWAVTTPLGFMRAERFHDEVEAFALPFAAFSRRISLFAGADWADRVPRDVAETMRRLVQSQIIDPAVARLPWLGGELRVIES | not soluble
18 | EQPKCNVRVVEMTYTTVGVVGEATRASGVVLVPDGPQCPGPYPVLGWGRDGQTFRRSEQAKSIISAKGDDPLVTRLASQGYVVVGTDYLGLGGSNYPYHPYLHANSEASALIDALRASRTVLQHLNTPLSNKLMLSGFSQGGHTAMATQREIEAHLSNE | not soluble
19 | GNSITSATDEQPHIGNYRLQKTIGKGNFAKVKLARHVLTGREVAVKIIDKTQLNPTSLQKLFREVRIMKILNHPNIVKLFEVIETEKTLYLVMEYASGGEVFDYLVAHGRMKEKEARAKFRQIVSAVQYCHQKYIVHRDLKAENLLLDGDMNIKIADFGFSNEFTVGNKLDTFCGSPPYAAPELFQGKKYDGPEVDVWSLGVILYTLVSGSLPFDGQNLKELRERVLRGKYRIPFYMSTDCENLLKKLLVLNPIKRGSLEQIMKDRWMNVGHEEEELKPYTEPDPDFNDTKRIDIMVTMGFARDEINDALINQKYDEVMATYILLGRK | soluble
20 | MKKKMMTVFTIGVMSLSILGGASPSETQKGKTDYTQRSKEQLNNGKIHAVHTEEKAEKLGIETEGKEQITLEKEIHETEVGREAEQLGISIEGKDVGMLSEEIYETKVKQEALKLGISIENTSIVDLITQINAIKIKDEADKLGISTDGKEIEDIAEEIYGKKVREEAGKLDISQKGKEIEELAQEVYEQKVQEEAKKHHIDLYGKDIYQILREINEQKVLQMADELNMDKMNMNIQELAEKIKKDQPEKGKELNFVPMVRTDADAFYSYLTNLEHHHHHH | not soluble
